Measurements published in patent US20250295734A1, “ANTICOAGULANT PROTEINS AND THEIR USE FOR TREATING DISEASES ASSOCIATED WITH THE ACTIVATION OF NEUTROPHILS” (BIOXODES, priority 2018, published 2025).

What was measured:
[1] = test system: neutrophils isolated from bone marrow of femurs of mice; assay: Neutrophil activation following incubation with ATP (flow cytometry); type: cell-based, mice (C57BL/6)
Protocol: (§1) Neutrophils were isolated from the bone marrow of femurs of mice (C57BL/6) as previously described (Hu 2012), using FR-1-coupled magnetic beads (anti-Ly6G Microbead Kit, Miltenyi Biotec). For activation with TFNα, cells were harvested, centrifugated and incubated during 30 min with or without 2 ng/ml of TNFα in Hanks solution (Gibco). Next, neutrophils were incubated with Ir-CPI (0.65 or 2 μM) in Hanks solution (1 h at 37° C.). For activation with ATP, cells were harvested, centrifugated and incubated with ATP 10 μM and Ir-CPI (0.65 or 2 μM) in Hanks solution (1 h at 37° C.). After washing of cells, expression of CD11b, activated CD11b or Ly6G was assessed by flow cytometry (Beckman Coulter Gallios). Antibodies used for neutrophil identification and activation analyses were IRR IgG1-FITC (irrelevant antibody), anti-CD45-APC, anti-Ly6G-PE and anti-CD11b-FITC or Alexa Fluor 647 anti-activated CD11b-. Analysis of results was performed using the Kaluza software (Beckman Coulter).
Percentage of activation marker expression was presented as mean±SEM (n=3independent experiments for TNFα activation and n=2 independent experiments for ATP activation). For experiments with TNFα activation, a one-way ANOVA followed by a
(§2) Neutrophils isolated from bone marrow of femurs of mice were submitted to different in vitro experimental conditions (untreated control or incubation with Ir-CPI, and with or without ATP) to assess the effect of Ir-CPI on their activation status. The activation status was assessed by analyzing the percentage of CD11b, activated CD11b and Ly6G expressions at the surface of neutrophils (FIG. 17).

[2] = test system: polymorphonuclear neutrophils (PMNs); assay: Laser-induced vessel wall injury: PMN accumulation (anti-Ly6G); type: in vivo, mice (C57BL/6JRj); settings: iv bolus 20.5 mg/kg + infusion 3.7 mg/kg/h
Protocol: Ir-CPI was administered intravenously as a bolus (20.5 mg/kg) immediately followed by a continuous infusion at a rate of 3.7 mg/kg/h (see Table 1 below). Due to fast distribution and elimination of Ir-CPI in the mice (t1/2α=14 min and t1/2β=236 min), the combination of the bolus and the infusion was chosen in order to maintain a constant Ir-CPI concentration into the blood.
Vessel wall injury was induced with a Micropoint Laser System (Photonics Instruments) focused through the microscope objective, parfocal with the focal plane and aimed at the vessel wall, as previously described (Dubois et al., 2006). Typically, 1 or 2 pulses were required to induce vessel wall injury.
Multiple thrombi were studied in a single mouse, with new thrombi formed upstream of earlier thrombi to avoid any contribution from thrombi generated earlier in the animal under study. Laser-beam injuries were done at various time after the start of test-item administration (+5 min up to about 150 min after bolus administration of Ir-CPI or NaCl (control)).
Image analysis was performed using Slidebook 4.1 (Intelligent Imaging Innovations). Fluorescence data were captured digitally at up to 50 frames per second and analyzed as previously described (Falati et al., 2002). The kinetics of thrombus formation were analyzed by determining median fluorescence values over time in a minimum number of 20 thrombi.
Detection of PMNs in vivo was performed using PE-labelled anti-Ly6G antibody.
To determine whether Ir-CPI has an impact on the accumulation of PMNs at the site of injury, the accumulation of PMNs on the injured vessel wall was monitored using a PE-fluorescently labeled antibody directed against Ly6G (FIG. 5).

FXIIa = molecular target: T1, FXIIa (Homo sapiens, UniProt P00748); settings: cited from earlier work
T1 construct: The resulting α-FXIIa has a heavy chain of 50 kDa, connected to a light chain of 28 kDa
T1 sequence (P00748 20-372 limits assumed): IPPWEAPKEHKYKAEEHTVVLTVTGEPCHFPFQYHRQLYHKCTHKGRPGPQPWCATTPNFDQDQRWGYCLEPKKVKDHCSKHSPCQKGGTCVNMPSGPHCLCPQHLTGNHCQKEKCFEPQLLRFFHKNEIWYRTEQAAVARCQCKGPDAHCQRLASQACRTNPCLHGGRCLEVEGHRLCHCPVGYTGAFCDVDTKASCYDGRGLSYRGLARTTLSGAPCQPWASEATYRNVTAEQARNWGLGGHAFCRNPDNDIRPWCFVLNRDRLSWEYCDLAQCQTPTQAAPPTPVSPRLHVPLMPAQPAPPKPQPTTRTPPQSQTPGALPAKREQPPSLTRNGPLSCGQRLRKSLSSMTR
T1 sequence (P00748 373-615 limits assumed): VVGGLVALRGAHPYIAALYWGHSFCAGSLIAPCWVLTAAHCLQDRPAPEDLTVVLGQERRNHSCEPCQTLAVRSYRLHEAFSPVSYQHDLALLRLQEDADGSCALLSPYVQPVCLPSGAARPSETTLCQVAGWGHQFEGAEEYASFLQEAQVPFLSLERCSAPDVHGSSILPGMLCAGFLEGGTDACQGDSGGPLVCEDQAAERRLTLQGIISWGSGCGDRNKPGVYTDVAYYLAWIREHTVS

[3] = test system: extrinsic or common pathway; settings: in vitro; cited from earlier work
[4] = test system: thrombin generation induced by TF (extrinsic pathway activator); settings: induced by low concentration of TF (5 pM); cited from earlier work
[5] = test system: neutrophils isolated from bone marrow of femurs of mice; assay: Neutrophil activation following incubation with TNFα (flow cytometry); type: cell-based, mice (C57BL/6)
Protocol: as §1, with “Coulter). […]” for “Coulter).”
as §2, with “control, priming with TNFα and/or” for “control or”, “Ir-CPI)” for “Ir-CPI, and with or without ATP)”, “of” for “of CD11b, activated”, “expression” for “and Ly6G expressions”, “16).” for “17).”

FXIa = FXIa (Homo sapiens, UniProt P03951); settings: aPTT-based test, FXI deficient plasma; cited from earlier work
[6] = Dissolution in NaCl 0.9% (solubility limit); type: physicochemical
Protocol: Ir-CPI was freshly prepared on the testing day by dissolution in NaCl 0.9% to reach the concentration of 50 mg/mL (corresponding to the maximal concentration to reach to avoid solubility issues).

Chain of FXIa (P03951 19-387 limits assumed): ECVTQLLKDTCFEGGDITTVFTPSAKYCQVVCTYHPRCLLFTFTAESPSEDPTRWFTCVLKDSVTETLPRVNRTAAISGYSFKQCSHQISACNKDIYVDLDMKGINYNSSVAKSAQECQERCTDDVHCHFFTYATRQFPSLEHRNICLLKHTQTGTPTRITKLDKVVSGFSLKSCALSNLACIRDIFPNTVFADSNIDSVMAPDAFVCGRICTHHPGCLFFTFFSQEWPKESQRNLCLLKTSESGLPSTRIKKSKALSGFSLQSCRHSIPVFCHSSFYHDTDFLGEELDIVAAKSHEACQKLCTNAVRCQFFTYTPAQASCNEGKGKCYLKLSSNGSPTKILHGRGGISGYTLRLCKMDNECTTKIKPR
Chain of FXIa (P03951 388-625 limits assumed): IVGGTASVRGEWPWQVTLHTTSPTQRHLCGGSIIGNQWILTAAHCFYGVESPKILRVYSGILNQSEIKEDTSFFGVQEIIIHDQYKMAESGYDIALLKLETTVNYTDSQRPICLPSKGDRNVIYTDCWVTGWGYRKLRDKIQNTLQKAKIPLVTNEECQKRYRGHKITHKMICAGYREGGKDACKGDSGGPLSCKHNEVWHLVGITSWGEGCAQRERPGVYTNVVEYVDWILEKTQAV

B1: Ir-CPI: Ixodes ricinus salivary gland polypeptide, contact phase inhibitor, MW=7660 Da; sequence SEQ ID NO: 1 or SEQ ID NO: 2 (protein)
chain: ANHKGRGRPAKCKLPPDDGPCRARIPSYYFDRKTKTCKEFMYGGCEGNENNFENITTCQEECRAKKV
[1]; ATP 10 μM, Ir-CPI 0.65 or 2 μM (FIG. 17A)
  expression of Ly6G at the surface of neutrophils: decreased
[1]; ATP 10 μM, Ir-CPI 0.65 or 2 μM (FIG. 17C)
  expression of activated CD11b at the surface of neutrophils: significantly decreased
[1]; ATP experiment (FIG. 17B), Ir-CPI 0.65 and 2 μM
  expression of CD11b: no effect
[2]; at T 261 sec
  maximal median of integrated PMN fluorescence (anti-Ly6G): 3.02×10^6 AU
[2]; at T 270 sec (end of measurement)
  median of integrated PMN fluorescence: 2.78×10^6 AU
[2]; first 4.5 min after laser injury
  PMN accumulation compared to control mice: drastically decreased
FXIIa
  binding to FXIIa: binds
[3]
  Prothrombin Time (PT): no effect
  Thrombin Time (TT): no effect
  dilute Russell's Viper Venom time (dRVVT): no effect
[4]
  thrombin generation: quite inactive
[5]; neutrophils primed with TNFα, Ir-CPI 2 μM, *p<0.05
  CD11b expressed at cell surface: significant reduction
[5]; untreated neutrophils, Ir-CPI 0.65 and 2 μM
  expression of CD11b: no effect
FXIa
  FXIa clotting activity: inhibits
[6]
  maximal concentration to reach to avoid solubility issues: 50 mg/mL
